{"source": "paper PMC8831599", "about": "“Defining molecular glues with a dual-nanobody cannabidiol sensor” (Nature Communications, 2022)", "binders": {"B1": {"name": "IAA7 degron peptide, non-labeled (peptide)", "chain": "QVVGWPPVRNYRK", "modifications": "synthetic peptide, unlabelled; limits not given, taken from the IAA7 degron peptide of the TIR1-ASK1 crystal structures (13-mer, PDB 2P1Q)"}, "B2": {"name": "Label-free IKZF1 ZF2-3 (141-196) (domain or fragment, human, UniProt Q13422 141-196, looked up)", "chain": "GERPFQCNQCGASFTQKGNLLRHIKLHSGEKPFKCHLCNYACRRRDALTGHLRTHS", "notes": "human IKZF1 (Ikaros), zinc fingers 2-3, residues 141-196; also called Avi-IKZF1^ZF2-3; not shown: GST, N-terminal, cleaved"}, "B3": {"name": "Biotin-labeled Avi-CK1α (enzyme, human, UniProt P48729 1-337, looked up)", "chain": "MASSSGSKAEFIVGGKYKLVRKIGSGSFGDIYLAINITNGEEVAVKLESQKARHPQLLYESKLYKILQGGVGIPHIRWYGQEKDYNVLVMDLLGPSLEDLFNFCSRRFTMKTVLMLADQMISRIEYVHTKNFIHRDIKPDNFLMGIGRHCNKLFLIDFGLAKKYRDNRTRQHIPYREDKNLTGTARYASINAHLGIEQSRRDDMESLGYVLMYFNRTSLPWQGLKAATKKQKYEKISEKKMSTPVEVLCKGFPAEFAMYLNYCRGLRFEEAPDYMYLRQLFRILFRTLNHQYDYTFDWTMLKQKAAQQAASSSGQGQQAQTPTGKQTDKTKSNMKGF", "modifications": "biotin on the Avi-tag (BirA-catalyzed)", "notes": "human casein kinase 1 alpha (CK1α); also called CK1a; source: Hi5 insect cells, purified (Ni-NTA, TEV, cation exchange, SEC, BirA biotinylation, SEC); not shown: His-Set3, N-terminal, cleaved; Avi-tag, N-terminal, kept"}, "B4": {"name": "Biotin-labeled Avi-IKZF1 ZF2-3 (141-196) (domain or fragment, human, UniProt Q13422 141-196, looked up)", "chain": "{Avi‑tag(biotin)}-GERPFQCNQCGASFTQKGNLLRHIKLHSGEKPFKCHLCNYACRRRDALTGHLRTHS", "modifications": "cysteine pairing not given here", "notes": "human IKZF1 (Ikaros), zinc fingers 2-3, residues 141-196; also called biotinylated IKZF1^ZF2-3; not shown: GST, N-terminal, cleaved; Avi-tag, N-terminal, kept"}}, "settings_in_all_cases": "both partners purified", "key": {"[1]": {"biological_target": "T1, GST-TIR1-ASK1 complex (Arabidopsis thaliana, UniProt Q570C0 1-594; Q39255 1-160)", "T1 construct": "F-box protein TIR1, Arabidopsis thaliana; ASK1 (SKP1 homologue), Arabidopsis thaliana; also called GST-tagged TIR1", "T1 sequence (looked up) 1": "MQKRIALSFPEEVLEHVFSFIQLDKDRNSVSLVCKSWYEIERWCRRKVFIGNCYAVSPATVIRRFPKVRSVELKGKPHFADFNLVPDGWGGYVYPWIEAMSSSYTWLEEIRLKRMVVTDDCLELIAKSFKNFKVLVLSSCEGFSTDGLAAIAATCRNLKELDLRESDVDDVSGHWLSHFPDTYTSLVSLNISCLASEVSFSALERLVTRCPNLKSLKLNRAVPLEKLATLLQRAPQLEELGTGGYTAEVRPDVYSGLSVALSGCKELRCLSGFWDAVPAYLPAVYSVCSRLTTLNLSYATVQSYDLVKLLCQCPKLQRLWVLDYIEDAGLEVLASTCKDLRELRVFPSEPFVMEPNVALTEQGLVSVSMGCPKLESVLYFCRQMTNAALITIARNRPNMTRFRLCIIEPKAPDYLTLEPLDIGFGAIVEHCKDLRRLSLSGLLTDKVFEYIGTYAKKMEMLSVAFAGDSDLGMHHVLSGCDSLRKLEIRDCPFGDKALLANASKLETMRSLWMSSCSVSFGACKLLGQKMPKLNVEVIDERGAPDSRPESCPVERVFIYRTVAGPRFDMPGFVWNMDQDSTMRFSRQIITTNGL", "T1 sequence (looked up) 2": "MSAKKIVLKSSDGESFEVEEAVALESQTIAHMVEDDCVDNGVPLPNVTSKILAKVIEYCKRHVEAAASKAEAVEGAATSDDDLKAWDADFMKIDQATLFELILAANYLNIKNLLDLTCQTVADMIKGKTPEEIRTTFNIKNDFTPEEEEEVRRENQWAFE", "experiment": "BLI; TIR1 and IAA7 degron without auxin; biotinylated IAA7 on streptavidin probe or GST-TIR1 on anti-GST probe (not told which); 30 °C; 25 mM HEPES pH 7.4, 100 mM NaCl, 1 mM TCEP, 0.1% Tween-20, 0.05 mg/mL BSA"}, "[2]": {"biological_target": "T1, GST-TIR1-ASK1 complex", "experiment": "AlphaScreen or HTRF; competition without auxin: 0.9 nM GST-TIR1 on acceptor beads, 8.3 nM biotinylated IAA7 degron peptide on donor beads, label-free IAA7 degron peptide titrated"}, "[3]": {"biological_target": "T2, His-DDB1–CRBN complex (human, UniProt Q96SW2 41-442; Q16531 1-1140)", "T2 construct": "human cereblon (CRBN) lacking residues 1-40; human DDB1; Held on AlphaScreen acceptor beads by the His-tag; source: Hi5 insect cells, co-expressed, purified (Ni-NTA); not shown: His-Msb-tag, N-terminal, kept", "experiment": "AlphaScreen or HTRF; competition without pomalidomide: 0.9 nM His-DDB1–CRBN on acceptor beads, 8.3 nM biotinylated IKZF1 ZF2-3 on donor beads, label-free IKZF1 ZF2-3 titrated"}, "[4]": {"biological_target": "T3, DDB1-CRBN complex (CRBN Δ1-40 with full-length DDB1), tag-free (human, UniProt Q96SW2 41-442; Q16531 1-1140)", "T3 construct": "human cereblon (CRBN) lacking residues 1-40; human DDB1; also called CRBN–DDB1 complex; CRBN in complex with full-length DDB1; source: Hi5 insect cells, co-expressed, purified (Ni-NTA, TEV, anion exchange, SEC); not shown: SUMO-tag, N-terminal, cleaved; His-Msb-tag, N-terminal, cleaved", "experiment": "BLI; biotinylated IKZF1 ZF2-3 or CK1α on streptavidin probe, tag-free DDB1–CRBN as analyte, no IMiD; 30 °C; 25 mM HEPES pH 7.4, 100 mM NaCl, 1 mM TCEP, 0.1% Tween-20, 0.05 mg/mL BSA"}}, "note": "Ends that are not written are not given here.", "data": [{"binder": "B1", "values": [{"measurement": "Kd", "setting": "[1]", "result": 18500, "unit": "nM"}, {"measurement": "IC50", "setting": "[2]", "result": "18000 to 20000", "unit": "nM"}]}, {"binder": "B2", "values": [{"measurement": "IC50", "setting": "[3]", "result": "200 to 300", "unit": "nM"}]}, {"binder": "B3", "values": [{"measurement": "Kd", "setting": "[4]", "result": 2300, "unit": "nM"}]}, {"binder": "B4", "values": [{"measurement": "Kd", "setting": "[4]", "result": 223, "unit": "nM"}]}]}
